“And” between values parts separate entries of the source, which are not always exact repeats. Equal entries are not always repeated.
Target: Recombinant human VEGF165 (Peprotech, Cat #100-20) (human) (UniProt P15692)
Experiment: ELISA; rhVEGF165 coated, anti-human IgG Fc-HRP detection

Recombinant human VEGF165 (Peprotech, Cat #100-20) (human), sequence (P15692 other isoform, or with tags, fused parts or gaps limits assumed): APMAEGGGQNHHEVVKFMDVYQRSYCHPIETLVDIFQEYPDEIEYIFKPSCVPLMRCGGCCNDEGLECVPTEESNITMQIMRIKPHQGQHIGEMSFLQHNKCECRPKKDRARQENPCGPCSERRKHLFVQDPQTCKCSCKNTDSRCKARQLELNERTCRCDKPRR
Aflibercept (Fc fusion), sequence (chain): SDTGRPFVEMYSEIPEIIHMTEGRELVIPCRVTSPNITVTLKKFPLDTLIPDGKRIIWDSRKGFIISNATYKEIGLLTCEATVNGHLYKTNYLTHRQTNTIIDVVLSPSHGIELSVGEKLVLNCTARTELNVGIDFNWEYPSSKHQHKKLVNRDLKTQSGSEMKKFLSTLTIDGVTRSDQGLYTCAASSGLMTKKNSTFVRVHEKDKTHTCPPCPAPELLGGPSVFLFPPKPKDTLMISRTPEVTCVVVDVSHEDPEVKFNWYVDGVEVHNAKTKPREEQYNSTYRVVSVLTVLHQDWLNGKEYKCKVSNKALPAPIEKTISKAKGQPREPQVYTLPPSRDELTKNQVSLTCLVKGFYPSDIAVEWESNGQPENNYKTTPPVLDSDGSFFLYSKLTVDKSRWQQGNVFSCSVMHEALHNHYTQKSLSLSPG

For Aflibercept (Fc fusion), which EC50 is on record?
The EC50 was 0.0513 nM and 0.074 nM and 0.0403 nM.

— US20250250330A1
